Literature values in article PMC3386632.

Target: integrin αIIbβ3 (Homo sapiens) (UniProt P08514)

disagregin (from UniProt P36235)
Kd: 0.04 µM
